In patent US20210395357A1 (IPHASE PHARMA SERVICE, published 2021):

Assays:
[1] = biological target: T1, rhIL-6-His (recombinant human IL-6, Val30 to Met212, C-terminal 6 His) (human, UniProt P05231 30-212); assay: cell-based or functional assay
[2] = biological target: T1, rhIL-6-His (recombinant human IL-6, …); assay: BLI, ForteBio Blitz
[3] = biological target: T1, rhIL-6-His (recombinant human IL-6, …); assay: competition ELISA: antibody pre-incubated with rhIL-6-His, binding to coated rhIL-6R detected with anti-His-HRP
Experimental: The rhIL-6R (Sino Biological, 10398-H02H) antigen was diluted with PBS (pH=8.6) to 1.5 μg/ml, added to a microtiter plate A at 100 μl/well, coated overnight at 4° C., and blocked at 37° C. for 2 hour by adding 300 μl/well of 3% BSA after washing the plate for 4 times with PBST. […] The plate A was washed once with PBST, added with the mixture in plate B, and incubated at 37° C. for 1 hour. The plate A was washed for 4 times with PBST, added with 100 μl/well of HRP (horseradish peroxidase) labeled anti-His antibody (ProteinTech, HRP-66005), and incubated at 37° C. for 1 hour. The plate was washed for 4 times with PBST, added with 100 μl/well of TMB color-developing solution (Zuman Bio, ZD311), and incubated at 37° C. for 15 minutes for color development; 50 μl/well of stop solution (1M sulfuric acid) was added, and the absorbance value at 450 nm wavelength was measured on the microplate reader (BioTek, ELx808).

[4] = biological target: T1, rhIL-6-His (recombinant human IL-6, …); assay: ELISA, rhIL-6-His coated at 1 µg/ml, anti-human IgG-HRP
Experimental: The rhIL-6-His antigen was diluted with PBS (pH=8.6) to 1 μg/ml, added to a microtiter plate at 100 μl/well, coated overnight at 4° C., and blocked at 37° C. for 2 hour by adding 300 μl/well of 3% BSA after washing the plate 4 times with PBST. […] The plate was washed for 4 times with PBST, added with HRP (horseradish peroxidase) labeled goat anti-human IgG antibody (ProteinTech, SA00001-1), and incubated at 37° C. for 1 hour. The plate was washed for 4 times with PBST, added with 100 μl/well of TMB color-developing solution (Zuman Bio, ZD311), and incubated at 37° C. for 15 minutes; after color development, 50 μl/well of stop solution (1M sulfuric acid) was added, and the absorbance value at 450 nm wavelength was measured on the microplate reader (BioTek, ELx808).

T1 sequence (P05231 other isoform, or with tags, fused parts or gaps limits assumed): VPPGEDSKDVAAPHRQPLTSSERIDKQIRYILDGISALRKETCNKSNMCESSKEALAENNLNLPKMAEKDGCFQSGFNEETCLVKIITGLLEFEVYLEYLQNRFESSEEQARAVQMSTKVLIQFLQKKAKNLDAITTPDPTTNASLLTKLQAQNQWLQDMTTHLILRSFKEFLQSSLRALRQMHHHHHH

B1: HZ-0408d (antibody, human IgG1, kappa, V domains shown)
VH: QVTLKESGPVLVKPTETLTLTCTVSGFSLSTSGMGVGWIRQPPGKALEWLAHIWWDDDKRYNSALKSRLTISKDTSKSQVVLTMTNMDPVDTATYYCARIGGLYVDYLMDYWGQGTLVTVSS
VL: DIQMTQSPSSLSASVGDRVTITCRASQSISDYLHWYQQKPGKAPKLLIYYASQSISGVPSRFSGSGSGTDFTLTISSLQPEDFATYYCQNGHSFPWTFGQGTKVEIKR
notes: Humanized from murine 140-4; IgG1 type antibody from 293F cells; also called L3/H3
- concentration of SAA in supernatant of rhIL-6 stimulated HepG2 cells at 100 µg/mL antibody [1]: 85 ng/mL
- concentration that inhibits IL-6-stimulated phosphorylation of p-Stat3 (Tyr705) in DLD-1 cells, Western blot [1]: 32 µg/mL
- kon [2]: 93200 M⁻¹ s⁻¹
- IC50 [3]: 3.04 µg/mL
- EC50 [4]: 0.39 µg/mL

B2: HZ-0408a (antibody, human IgG1, kappa, V domains shown)
VH: QVTLKESGPALVKPTQTLTLTCTFSGFSLSTSGMGVGWIRQPPGKALEWLAHIWWDDDKRYNSALKSRLTISKDTSKNQVVLTMTNMDPVDTATYYCARIGGLYVDYLMDYWGQGTLVTVSS
VL: EIVLTQSPDFQSVTPKEKVTITCRASQSISDYLHWYQQKPDQSPKLLIKYASQSISGVPSRFSGSGSGTDFTLTINSLEAEDAATYYCQNGHSFPWTFGQGTKVEIKR
notes: Humanized from murine 140-4; expressed in 293F cells and captured on Protein A as an IgG1 type antibody; also called L1/H2
- concentration of SAA in supernatant of rhIL-6 stimulated HepG2 cells at 100 µg/mL antibody [1]: 30.5 ng/mL
- concentration that inhibits IL-6-stimulated phosphorylation of p-Stat3 (Tyr705) in DLD-1 cells, Western blot [1]: 2 µg/mL
- kon [2]: 128000 M⁻¹ s⁻¹
- IC50 [3]: 0.72 µg/mL
- EC50 [4]: 0.16 µg/mL

B3: HZ-0408c (antibody, human IgG1, kappa, V domains shown)
VH: QVTLKESGPVLVKPTETLTLTCTVSGFSLSTSGMGVGWIRQPPGKALEWLAHIWWDDDKRYNSALKSRLTISKDTSKSQVVLTMTNMDPVDTATYYCARIGGLYVDYLMDYWGQGTLVTVSS
VL: EIVLTQSPATLSLSPGERATLSCRASQSISDYLHWYQQKPGQAPRLLIYYASQSISGIPARFSGSGSGTDFTLTISSLEPEDFAVYYCQNGHSFPWTFGQGTKVEIKR
notes: Humanized from murine 140-4; IgG1 type antibody from 293F cells; also called L2/H3
- concentration of SAA in supernatant of rhIL-6 stimulated HepG2 cells at 100 µg/mL antibody [1]: 12.5 ng/mL
- concentration that inhibits IL-6-stimulated phosphorylation of p-Stat3 (Tyr705) in DLD-1 cells, Western blot [1]: 8 µg/mL
- kon [2]: 74300 M⁻¹ s⁻¹
- IC50 [3]: 1.29 µg/mL
- EC50 [4]: 0.18 µg/mL

B4: HZ-0408b (antibody, human IgG1, kappa, V domains shown)
VH: QVTLKESGPVLVKPTETLTLTCTVSGFSLSTSGMGVGWIRQPPGKALEWLAHIWWDDDKRYNSALKSRLTISKDTSKSQVVLTMTNMDPVDTATYYCARIGGLYVDYLMDYWGQGTLVTVSS
VL: EIVLTQSPDFQSVTPKEKVTITCRASQSISDYLHWYQQKPDQSPKLLIKYASQSISGVPSRFSGSGSGTDFTLTINSLEAEDAATYYCQNGHSFPWTFGQGTKVEIKR
notes: Humanized from murine 140-4; IgG1 type antibody from 293F cells; also called L1/H3
- concentration of SAA in supernatant of rhIL-6 stimulated HepG2 cells at 100 µg/mL antibody [1]: -2.5 ng/mL
- concentration that inhibits IL-6-stimulated phosphorylation of p-Stat3 (Tyr705) in DLD-1 cells, Western blot [1]: 2 µg/mL
- kon [2]: 233000 M⁻¹ s⁻¹
- IC50 [3]: 0.53 µg/mL
- EC50 [4]: 0.09 µg/mL

B5: Siltuximab (antibody, V domains shown)
VH: EVQLVESGGKLLKPGGSLKLSCAASGFTFSSFAMSWFRQSPEKRLEWVAEISSGGSYTYYPDTVTGRFTISRDNAKNTLYLEMSSLRSEDTAMYYCARGLWGYYALDYWGQGTSVTVSS
VL: QIVLIQSPAIMSASPGEKVTMTCSASSSVSYMYWYQQKPGSSPRLLIYDTSNLASGVPVRFSGSGSGTSYSLTISRMEAEDAATYYCQQWSGYPYTFGGGTKLEIK
- concentration of SAA in supernatant of rhIL-6 stimulated HepG2 cells at 100 µg/mL antibody [1]: 148 ng/mL
- concentration that inhibits IL-6-stimulated phosphorylation of p-Stat3 (Tyr705) in DLD-1 cells, Western blot [1]: 64 µg/mL
- kon [2]: 28900 M⁻¹ s⁻¹
- IC50 [3]: 12.5 µg/mL
- EC50 [4]: 67.3 µg/mL
